T1: hIL4R-His, Interleukin-4 receptor subunit alpha (Homo sapiens) aa 27-227 (Homo sapiens, UniProt P24394 27-227)
T1 construct: range 27-227; not shown: His tag as the name implies
T1 sequence (looked up): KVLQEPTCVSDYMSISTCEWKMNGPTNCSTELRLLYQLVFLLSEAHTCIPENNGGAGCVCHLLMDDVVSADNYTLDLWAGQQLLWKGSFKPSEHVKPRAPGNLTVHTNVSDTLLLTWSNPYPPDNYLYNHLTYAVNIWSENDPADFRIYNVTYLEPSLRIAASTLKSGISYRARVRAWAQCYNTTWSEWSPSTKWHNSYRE

B1: 02-006, bivalent bispecific chimeric antibody that specifically binds to PD1 and CSF1R (bispecific antibody, human IgG1, kappa, L234A L235A)
heavy 1: QVQLVQSGGGLVQPGGSLRLSCAASGFTFSSYWMYWVRQVPGKGLEWVSAIDTGGGRTYYADSVKGRFAISRVNAKNTMYLQMNSLRAEDTAVYYCARDEGGGTGWGVLKDWPYGLDAWGQGTLVTVSSASTKGPSVFPLAPSSKSTSGGTAALGCLVKDYFPEPVTVSWNSGALTSGVHTFPAVLQSSGLYSLSSVVTVPSSSLGTQTYICNVNHKPSNTKVDKRVEPKSCDKTHTCPPCPAPEAAGGPSVFLFPPKPKDTLYITREPEVTCVVVDVSHEDPEVKFNWYVDGVEVHNAKTKPREEQYNSTYRVVSVLTVLHQDWLNGKEYKCKVSNKALPAPIEKTISKAKGQPREPQVCTLPPSRDELTKNQVSLSCAVKGFYPSDIAVEWESNGQPENNYKTTPPVLDSDGSFFLVSKLTVDKSRWQQGNVFSCSVMHEALHNHYTQKSLSLSPGK
light 1: QPVLTQPLSVSVALGQTARITCGGNNIGSKNVHWYQQKPGQAPVLVIYRDSNRPSGIPERFSGSNSGNTATLTISRAQAGDEADYYCQVWDSSTAVFGTGTKLTVLQRTVAAPSVFIFPPSDEQLKSGTASVVCLLNNFYPREAKVQWKVDNALQSGNSQESVTEQDSKDSTYSLSSTLTLSKADYEKHKVYACEVTHQGLSSPVTKSFNRGEC
heavy 2: not shown
light 2: QAGLTQPPSVSVAPGQTARITCGGNNIGSKSVHWYQQKPGQAPVLVVYGDSDRPSGIPERFSGSNSGNTATLTISRVEAGDEADYYCQVWDISSDHVVFGGGTQLTVLQRQVKPEAWLSSGPSPGPGRLQLVCHVSGFYPKPVWVMWMRGEQEQQGTQLGDILPNANWTWYLRATLDVADGEAAGLSCRVKHSSLEGQDIILYWRGSC
notes: Produced in CHO cells
B2: 02-009, bivalent bispecific chimeric antibody that specifically binds to CD20 and CSF1R (bispecific antibody, human IgG1, kappa, L234A L235A)
heavy 1: QVQLVESGGGLVRPGGSLRLSCAASEFTFDDYAMSWVRQAPGKGLEWVSAISWNGGSTNYADSVKGRFTISRDNAKNSLYLQMNSLRAEDTALYYCASTVEVAHRRLYKYLEVWGQGTLVTVSSASTKGPSVFPLAPSSKSTSGGTAALGCLVKDYFPEPVTVSWNSGALTSGVHTFPAVLQSSGLYSLSSVVTVPSSSLGTQTYICNVNHKPSNTKVDKRVEPKSCDKTHTCPPCPAPEAAGGPSVFLFPPKPKDTLYITREPEVTCVVVDVSHEDPEVKFNWYVDGVEVHNAKTKPREEQYNSTYRVVSVLTVLHQDWLNGKEYKCKVSNKALPAPIEKTISKAKGQPREPQVCTLPPSRDELTKNQVSLSCAVKGFYPSDIAVEWESNGQPENNYKTTPPVLDSDGSFFLVSKLTVDKSRWQQGNVFSCSVMHEALHNHYTQKSLSLSPGK
light 1: QAGLTQPPSVSVAPGQTARITCGGNNIGSKSVHWYQQKPGQAPVLVVYGDSDRPSGIPERFSGSNSGNTATLTISRVEAGDEADYYCQVWDISSDHVVFGGGTQLTVLRTVAAPSVFIFPPSDEQLKSGTASVVCLLNNFYPREAKVQWKVDNALQSGNSQESVTEQDSKDSTYSLSSTLTLSKADYEKHKVYACEVTHQGLSSPVTKSFNRGEC
heavy 2: not shown
light 2: DIQMTQSPSSLSASVGDRVTITCRASSSVSYMHWYQQKPGKAPKPLIYAPSNLASGVPSRFSGSGSGTDFTLTISSLQPEDFATYYCQQWSFNPPTFGQGTKVEIKQRQVKPEAWLSSGPSPGPGRLQLVCHVSGFYPKPVWVMWMRGEQEQQGTQLGDILPNANWTWYLRATLDVADGEAAGLSCRVKHSSLEGQDIILYWRGSC
notes: Produced in CHO cells
B3: 02-005, bivalent bispecific chimeric antibody that specifically binds to PD1 and CD20 (bispecific antibody, human IgG1, kappa, L234A L235A)
heavy 1: EVQLVESGGGLVQPGGSLRLSCAASGYTFTSYNMHWVRQAPGKGLEWVGAIYPGNGDTSYNQKFKGRFTISVDKSKNTLYLQMNSLRAEDTAVYYCARVVYYSNSYWYFDVWGQGTLVTVSSASTKGPSVFPLAPSSKSTSGGTAALGCLVKDYFPEPVTVSWNSGALTSGVHTFPAVLQSSGLYSLSSVVTVPSSSLGTQTYICNVNHKPSNTKVDKRVEPKSCDKTHTCPPCPAPEAAGGPSVFLFPPKPKDTLYITREPEVTCVVVDVSHEDPEVKFNWYVDGVEVHNAKTKPREEQYNSTYRVVSVLTVLHQDWLNGKEYKCKVSNKALPAPIEKTISKAKGQPREPQVCTLPPSRDELTKNQVSLSCAVKGFYPSDIAVEWESNGQPENNYKTTPPVLDSDGSFFLVSKLTVDKSRWQQGNVFSCSVMHEALHNHYTQKSLSLSPGK
light 1: DIQMTQSPSSLSASVGDRVTITCRASSSVSYMHWYQQKPGKAPKPLIYAPSNLASGVPSRFSGSGSGTDFTLTISSLQPEDFATYYCQQWSFNPPTFGQGTKVEIKRTVAAPSVFIFPPSDEQLKSGTASVVCLLNNFYPREAKVQWKVDNALQSGNSQESVTEQDSKDSTYSLSSTLTLSKADYEKHKVYACEVTHQGLSSPVTKSFNRGEC
heavy 2: not shown
light 2: QPVLTQPLSVSVALGQTARITCGGNNIGSKNVHWYQQKPGQAPVLVIYRDSNRPSGIPERFSGSNSGNTATLTISRAQAGDEADYYCQVWDSSTAVFGTGTKLTVLQQRQVKPEAWLSSGPSPGPGRLQLVCHVSGFYPKPVWVMWMRGEQEQQGTQLGDILPNANWTWYLRATLDVADGEAAGLSCRVKHSSLEGQDIILYWRGSC
notes: Produced in CHO cells
B4: 02-008, bivalent bispecific chimeric antibody that specifically binds to CD20 and CSF1R (bispecific antibody, human IgG1, kappa, L234A L235A)
heavy 1: B3 heavy 1
light 1: B3 light 1
heavy 2: not shown
light 2: B1 light 2
notes: Produced in CHO cells
B5: 02-007, bivalent bispecific chimeric antibody that specifically binds to PD1 and CSF1R (bispecific antibody, human IgG1, kappa, L234A L235A)
heavy 1: B2 heavy 1
light 1: B2 light 1
heavy 2: not shown
light 2: B3 light 2
notes: Produced in CHO cells

Legend:
[1] = target: T2, extracellular domain of the human PD-1 protein (hPD1ex-H6F) (Homo sapiens, UniProt Q15116 21-170); assay: BLI Octet RED 384; antibody on ProA sensor, antigen in solution; 1:1 global fit
T2 construct: Molecular weight 20.6 kDa; made in CHO cells; also called hPDlex-H6F; not shown: C-terminal His and FLAG tags
T2 sequence (Q15116 21-170 limits assumed, form in doubt): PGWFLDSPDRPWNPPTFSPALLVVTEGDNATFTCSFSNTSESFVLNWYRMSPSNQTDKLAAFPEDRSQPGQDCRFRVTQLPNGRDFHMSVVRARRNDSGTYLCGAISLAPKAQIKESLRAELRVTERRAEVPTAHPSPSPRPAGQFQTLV
Description: (§1) The experiments were carried out using a kinetic buffer solution (hereinafter referred to as 1×KB) having the following formulation: 4.3 mM Na₂HPO₄; 136.9 mM NaCl, 1.5 mM KH₂PO₄; 2.7 mM KCl; the volume fraction of the added Tween 20 was 0.1%; the mass fraction of the added BSA (bovine serum albumin) was 0.1%; pH 7.4. Before the measurement, the ProA sensors were regenerated with a solution of 50 mM glycine and hydrochloric acid, pH 1.8 (5 seconds in the regenerating solution, 5 seconds in 1×KB, three repetitions). In the case of the hPD1ex-H6F and hCSF1R_His antigens, the Protein A (ProA) biosensors (ForteBio) were immersed in a solution with antibodies at a concentration of 10 μg/ml for 60 seconds to immobilize same. The baseline was recorded in 1×KB for 60 seconds. The sensors loaded with the antibody were then immersed into wells containing a solution of the target antigen (analyte) in a kinetic buffer for 90 seconds. Measurements were performed for solutions with hPDlex-H6F analyte at concentrations of 2.50 μg/ml (121.4 nM), 1.25 μg/ml (60.7 nM), 0.625 μg/ml (30.35 nM). […] Then we detected complex dissociation in 1×KB for 210 s for hPDlex-H6F, 300 s for hCSF1R_His.
(§2) All measurements were carried out at 30° C., orbital mixing speed was 1,000 revolutions per minute.
(§3) To obtain numerical values of kinetic constants (kₒₙ is the on/association rate constant, kdis is the dissociation rate constant, KD is the equilibrium dissociation constant or affinity constant), the resulting sensograms were processed according to the 1:1 interaction model using Global Fit (selection of one set of kon, kdis, KD constants to analyze several sensograms of different concentrations) of the ForteBio Octet Data Analysis 9.0 software.

[2] = target: T3, extracellular domain of the human CSF1R protein (hCSF1R_His) (Homo sapiens, UniProt P07333 20-512); assay: as above
T3 construct: range 20-512; Molecular weight 57.4 kDa; made in CHO cells; also called hCSF1_His; not shown: C-terminal His and FLAG tags
T3 sequence (P07333 20-512 limits assumed): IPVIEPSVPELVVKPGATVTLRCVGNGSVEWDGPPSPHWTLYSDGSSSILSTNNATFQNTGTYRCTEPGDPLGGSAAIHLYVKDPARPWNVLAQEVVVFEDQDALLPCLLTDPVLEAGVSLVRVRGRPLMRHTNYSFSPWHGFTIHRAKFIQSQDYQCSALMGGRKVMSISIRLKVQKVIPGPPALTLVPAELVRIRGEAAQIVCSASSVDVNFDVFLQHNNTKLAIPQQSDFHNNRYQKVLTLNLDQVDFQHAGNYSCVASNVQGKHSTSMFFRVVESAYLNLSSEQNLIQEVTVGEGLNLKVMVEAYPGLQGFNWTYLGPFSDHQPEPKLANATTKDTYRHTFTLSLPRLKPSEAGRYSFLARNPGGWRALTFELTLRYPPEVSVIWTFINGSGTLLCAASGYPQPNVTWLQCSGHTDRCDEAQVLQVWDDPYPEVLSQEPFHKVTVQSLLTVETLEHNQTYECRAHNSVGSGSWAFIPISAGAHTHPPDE
Description: as §1, §2, §3

[3] = target: T3, extracellular domain of the human CSF1R …; assay: BLI Octet RED 384; antibody on ProA sensor, antigen 30 ug/ml
[4] = target: T1, hIL4R-His, Interleukin-4 receptor …; assay: as above

Binder | Kd [1] [nM] | koff [1] [s⁻¹] | kon [1] [M⁻¹ s⁻¹] | Kd [2] [nM] | koff [2] [s⁻¹] | kon [2] [M⁻¹ s⁻¹] | binding result [3] | binding result [4]
B1 | 2.51 | 0.000691 | 275000 | 0.797 | 0.000286 | 359000 |  | 
B2 |  |  |  | 0.42 | 0.00021 | 500000 |  | 
B3 | 5.69 | 0.00101 | 178000 |  |  |  | no binding (tested: 522.5 nM) | 
B4 |  |  |  | 0.549 | 0.000236 | 429000 |  | 
B5 | 4.49 | 0.00109 | 242000 | 0.831 | 0.000314 | 378000 |  | no binding (tested: 1154 nM)

Reference: patent US20250340613A1 (JOINT STOCK COMPANY BIOCAD, published 2025)
